Test results as given in article PMC11154711 (2024).

Legend:
Test in all cases: BLI
OTUB1 V173K [1] = biological target: T1, OTUB1 V173K (human, UniProt Q96FW1 1-271, V173K)
OTUB1 F133A [2] = biological target: T2, OTUB1 F133A (human, UniProt Q96FW1 1-271, F133A)
OTUB1 V173D [3] = biological target: T3, OTUB1 V173D (human, UniProt Q96FW1 1-271, V173D)
OTUB1 V173K [4] = biological target: T1, OTUB1 V173K; remark: listed apart in the source
OTUB1 F133A [5] = biological target: T2, OTUB1 F133A; remark: listed apart in the source
OTUB1 V173D [6] = biological target: T3, OTUB1 V173D; remark: listed apart in the source

Kd (OTUB1 V173K [1]): 1.76 µM
Kd (OTUB1 F133A [2]): 46.7 µM
Kd (OTUB1 V173D [3]): 3.02 µM
koff (OTUB1 V173K [4]): 0.006 s⁻¹
koff (OTUB1 F133A [5]): 0.005 s⁻¹
koff (OTUB1 V173D [6]): 0.004 s⁻¹
B1: Ubc13 (E2 ubiquitin-conjugating enzyme) (enzyme)
chain: MAGLPRRIIKETQRLLAEPVPGIKAEPDESNARYFHVVIAGPQDSPFEGGTFKLELFLPEEYPMAAPKVRFMTKIYHPNVDKLGRICLDILKDKWSPALQIRTVLLSIQALLSAPNPDDPLANDVAEQWKTNEAQAIETARAWTRLYAMNNI
